The target of assay [1] is T1, commercial CD3ε (Creative Biomart, Catalog Number CD3E-2194H) (human, UniProt P07766).
T1 construct: commercial recombinant protein; also called commercial CD3E
Put plainly: binding affinity on commercial CD3ε (Creative Biomart CD3E-2194H); method not stated in the legend.

For assay [2], the target named is T2, human CD3 on T cells (human, UniProt P07766 22-207).
T2 construct: whole, on cells; On cells CD3ε stands in the CD3/TCR complex; also called CD3 antigen; CD3ε
The experiment in a line: Scatchard; table headed 'Bivalent Binding Affinity', though its footnote reads 'monovalent binding Kd measured by scatchard'; cells not named.

The target of assay [3] is T2, human CD3 on T cells. The experiment in a line: Scatchard; table 'Monovalent Binding Affinity'; the partner arm is not given, the TDB is taken from legend paragraph 149, p-1410 and Figure 16; cells not named.
For assay [4], the target named is T2, human CD3 on T cells. The experiment in a line: FACS on Jurkat cells, anti-huIgG-PE, MFI/PE; panel 'Jurkat / CD3 arm'.
Assay [5] addresses T2, human CD3 on T cells. Put plainly: FACS on Jurkat cells (CD3), anti-huIgG-PE; number printed beside the curve without a quantity name, taken as EC50. On the procedure: (§1) Binding affinities for the each of the CD3/CD20 TDBs were tested by Biacore or FACS analysis, as described above for the anti-CD3 antibodies. Briefly, for Biacore binding assays, human CD3εγ was immobilized on Biacore Series S CM5 sensor chip using the amine coupling kit from Biacore and CD3/CD20 TDBs or Fab variants thereof were in the flow through. For FACS binding assays, either Bjab cells (for B cell antigens) or Jurkat cells (for CD3 antigen) were incubated with various concentrations of TDB antibodies at 4° C. for 30 minutes, then cells were washed and incubated with 2nd antibody (anti-huIgG-PE; BD Bioscience) for another 15 minutes, before cells were washed again and ready for FACS analysis.

For assay [6], the target named is T2, human CD3 on T cells. The assay is described as above. The protocol:
as §1
This is another data set of the same source.

The target in assay [7] is T2, human CD3 on T cells. Described as above. On the procedure:
as §1
This is another data set of the same source.

In assay [8] the target is T1, commercial CD3ε (Creative Biomart, …). The experiment in a line: binding affinity on commercial CD3ε (Creative Biomart CD3E-2194H); method not stated in the legend. The source holds these as a separate data set.
For assay [9], the target named is T3, single chain human CD3ε-26mer-CD3γ (CD3εγ) (human).
T3 construct: also called human CD3εγ
T3 chain: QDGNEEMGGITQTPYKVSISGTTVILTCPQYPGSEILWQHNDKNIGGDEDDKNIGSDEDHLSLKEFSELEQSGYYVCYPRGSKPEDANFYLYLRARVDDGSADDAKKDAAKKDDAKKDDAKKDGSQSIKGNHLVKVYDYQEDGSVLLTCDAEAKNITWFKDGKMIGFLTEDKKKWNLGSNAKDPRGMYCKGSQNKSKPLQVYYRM
The experiment in a line: Biacore, human CD3εγ on chip, antibody in flow-through. Background: In SPR one partner is held on a chip, and binding of the other changes the refractive index at the surface.

The target of a further assay is T4, cyCD3εγ (cynomolgus monkey).
T4 chain 1: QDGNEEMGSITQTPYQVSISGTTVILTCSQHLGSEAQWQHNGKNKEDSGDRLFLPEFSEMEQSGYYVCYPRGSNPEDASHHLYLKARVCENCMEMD
T4 chain 2: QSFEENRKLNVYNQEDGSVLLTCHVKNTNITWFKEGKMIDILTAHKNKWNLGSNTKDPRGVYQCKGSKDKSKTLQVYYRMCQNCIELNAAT
The experiment in a line: monovalent binding affinity, method not stated on the sheet.

Assay [10] deals with T3, single chain human CD3ε-26mer-CD3γ …. Put plainly: monovalent binding affinity, method not stated on the sheet; column huCD3εγ.
The target is the same in assay [11]. Put plainly: Biacore, monovalent KD of the CD3 arm; CD3 antigen not named on the sheet (reactivity hu, cyno).
The target of the next assay is T5, G3A.
T5 construct: Residue number counts from the N-terminus of CD3ε; also called CD3εγ G3A; CD3 mutant G3A
T5 single chain CD3ε-26mer linker-CD3γ: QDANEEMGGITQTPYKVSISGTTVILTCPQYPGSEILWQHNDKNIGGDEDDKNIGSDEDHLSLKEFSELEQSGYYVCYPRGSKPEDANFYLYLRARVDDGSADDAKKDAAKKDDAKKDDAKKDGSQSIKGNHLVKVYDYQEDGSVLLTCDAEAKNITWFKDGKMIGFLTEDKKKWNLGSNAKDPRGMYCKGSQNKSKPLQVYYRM
Put plainly: phage ELISA: anti-CD3 antibody coated on the plate, dilution series of M13 phage displaying the CD3εγ variant, anti-M13-HRP, OD A450; [phage] axis 10^-3 to 10^0 without unit. The protocol:
(§2) This CD3εγ phagemid was used as a template for making single alanine mutations in CD3ε by Kunkel mutagenesis. […] The effect of alanine mutation in CD3εγ on anti-CD3 antibody binding was assessed using a phage ELISA. Each anti-CD3 antibody was immobilized on a NUNC maxisorp plate at 2 μg/ml in PBS buffer overnight at 4° C. Purified phage supernatant displaying a CD3εγ alanine variant (1.0 OD₄₅₀) was added to the plate and allowed to bind at room temperature with shaking for 1 h. After washing, bound phage was detected with anti-M13-HRP (GE Healthcare cat #45-001-419).
In general terms: In an ELISA, binding on a coated surface is turned into a signal by an enzyme label.

The target of another assay is T6, N4A.
T6 construct: Residue number counts from the N-terminus of CD3ε; also called CD3εγ N4A; CD3 mutant N4A
T6 single chain CD3ε-26mer linker-CD3γ: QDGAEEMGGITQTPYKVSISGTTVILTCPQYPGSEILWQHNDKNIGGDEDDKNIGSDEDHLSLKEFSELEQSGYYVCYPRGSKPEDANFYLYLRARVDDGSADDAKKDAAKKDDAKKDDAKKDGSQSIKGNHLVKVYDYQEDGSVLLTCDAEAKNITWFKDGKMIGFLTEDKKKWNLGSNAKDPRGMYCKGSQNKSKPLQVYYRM
The description is as above. On the procedure:
as §2

For a further assay, the target named is T7, E5A.
T7 construct: Residue number counts from the N-terminus of CD3ε; also called CD3εγ E5A; CD3 mutant E5A
T7 single chain CD3ε-26mer linker-CD3γ: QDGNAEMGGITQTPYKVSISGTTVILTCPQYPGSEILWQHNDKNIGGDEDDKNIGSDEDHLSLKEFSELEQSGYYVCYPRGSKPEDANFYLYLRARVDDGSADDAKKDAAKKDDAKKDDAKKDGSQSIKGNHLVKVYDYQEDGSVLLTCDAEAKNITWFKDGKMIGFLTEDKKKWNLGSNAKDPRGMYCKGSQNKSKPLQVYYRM
The assay is described as above. The protocol: as §2

For another assay, the target named is T8, E6A.
T8 construct: Residue number counts from the N-terminus of CD3ε; also called CD3εγ E6A; CD3 mutant E6A
T8 single chain CD3ε-26mer linker-CD3γ: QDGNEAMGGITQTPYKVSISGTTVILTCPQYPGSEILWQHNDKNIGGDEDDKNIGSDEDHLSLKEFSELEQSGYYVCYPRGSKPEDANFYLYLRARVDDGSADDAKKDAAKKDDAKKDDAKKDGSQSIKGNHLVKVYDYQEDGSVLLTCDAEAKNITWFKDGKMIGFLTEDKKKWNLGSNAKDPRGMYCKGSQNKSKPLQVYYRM
Described as above. On the procedure: as §2

Several values for one entry are separate records, joined by “and”; a condition that tells them apart may be missing. Equal values may be shown once. Read-outs that look alike come from different tables or passages of the source.

B1: murine 41D9 (antibody, V domains shown)
VH: QIQLVQSGPELKKPGETVKISCKASGYTFTNYGMNWVKQAPGKGLKWMGWINTNTGKPTYAEEFKGRFVFSLETSASTTYLQINNLKNEDTATYFCARRGDYRYAWFLYWGQGTLVTVSA
VL: QAVVTQESALTTSPGGTVILTCRSSTGAVTTSNYANWVQEKPDHLFTGLIGGTSNRAPGVPVRFSGSLIGDKAALTITGAQTEDDAMYFCALWYSTHFVFGGGTKVTV
notes: also called 41D9a
Turning to B1, the Kd in assay [1] stood at 1.1 nM.

B2: K&H 2H7v16/hu UCHT1vM1 (bispecific antibody, V domains shown)
VH 1: EVQLVESGGGLVQPGGSLRLSCAASGYTFTSYNMHWVRQAPGKGLEWVGAIYPGNGDTSYNQKFKGRFTISVDKSKNTLYLQMNSLRAEDTAVYYCARVVYYSNSYWYFDVWGQGTLVTVSS
VL 1: DIQMTQSPSSLSASVGDRVTITCRASSSVSYMHWYQQKPGKAPKPLIYAPSNLASGVPSRFSGSGSGTDFTLTISSLQPEDFATYYCQQWSFNPPTFGQGTKVEIK
VH 2: EVQLVESGGGLVQPGGSLRLSCAASGYSFTGYTMNWVRQAPGKGLEWVALINPYKGVSTYADSVKGRFTISVDKSKNTAYLQMNSLRAEDTAVYYCARSGYYGDSDWYFDVWGQGTLVTVSS
VL 2: DIQMTQSPSSLSASVGDRVTITCRASQDIRNYLNWYQQKPGKAPKLLIYYTSRLESGVPSRFSGSGSGTDYTLTISSLQPEDFATYYCQQGNTLPWTFGQGTKVEIK
modifications: Knob-into-hole full-length IgG; constant regions are not in the letters.
notes: also called CD3/CD20 TDB 2H7v16/UCHT1vM1
As to B2, the Kd with human CD3 on T cells [2] was found to be 40 nM; in the assay with human CD3 on T cells [3], 318 nM.

B3: CD3/CD20 TDB 2H7v16/UCHT1v9 (bispecific antibody, human IgG1, V domains shown)
VH 1: EVQLVESGGGLVQPGGSLRLSCAASGYTFTSYNMHWVRQAPGKGLEWVGAIYPGNGDTSYNQKFKGRFTISVDKSKNTLYLQMNSLRAEDTAVYYCARVVYYSNSYWYFDVWGQGTLVTVSS
VL 1: DIQMTQSPSSLSASVGDRVTITCRASSSVSYMHWYQQKPGKAPKPLIYAPSNLASGVPSRFSGSGSGTDFTLTISSLQPEDFATYYCQQWSFNPPTFGQGTKVEIK
VH 2: EVQLVESGGGLVQPGGSLRLSCAASGYSFTGYTMNWVRQAPGKDLEWVALINPYKGVSTYNQKFKDRFTISVDKSKNTAYLQMNSLRAEDTAVYYCARSGYYGDSDWYFDVWGQGTLVTVSS
VL 2: DIQMTQSPSSLSASVGDRVTITCRASQDIRNYLNWYQQKPGKAPKLLIYYTSRLESGVPSRFSGSGSGTDYTLTISSLQPEDFATYYCQQGNTLPWTFGQGTKLELK
notes: also called TDB A
As usually defined, the EC50 (read off the curve) is the concentration at which the effect is half-maximal. Low values mean greater potency, high ones weaker potency. By EC50 is commonly meant the concentration at which the effect is half-maximal. A low value points to greater potency. As to B3, in the assay with human CD3 on T cells [4], the “EC50 (read off the curve)” value was roughly 0.1 µg/mL. For the same molecule, the EC50 was 0.533 µg/mL with human CD3 on T cells [5]; 0.09 µg/mL and 0.6 nM in the assay with human CD3 on T cells [6]; 0.21 µg/mL and 1.4 nM in the assay with human CD3 on T cells [7]. The Kd in the assay with human CD3 on T cells [2] is 3 nM; with human CD3 on T cells [3], 4.2 nM.

B4: murine 38E4 (antibody, V domains shown)
VH: QVQLQQSGPELVKPGASVTISCTASGFTFTSYYIHWVRQRPGQGLEWIGWIYPENDNTKYNEKFKDKATLTADTSSSTAYMQLSSLTSEDSAVYYCARDGYSRYYFDYWGQGTTLTVSS
VL: DIVMTQSPSFLAVSAGEKVTMSCKSSQSLLNSRTRKNYLAWYQQRPGQSPKLLIYWTSTRKSGVPDRFTGSGSGTDFTLTISSVQAEDLAIYYCKQSFILRTFGGGTKLEIK
On to B4, for which the Kd in assay [8] was 0.75 nM.

B5: humanized 38E4 variant: VH1 graft + R71A / K4 graft + P43S (antibody, V domains shown)
VH: EVQLVQSGAEVKKPGASVKVSCKASGFTFTSYYIHWVRQAPGQGLEWIGWIYPENDNTKYNEKFKDRVTITADTSTSTAYLELSSLRSEDTAVYYCARDGYSRYYFDYWGQGTLVTVSS
VL: DIVMTQSPDSLAVSLGERATINCKSSQSLLNSRTRKNYLAWYQQKPGQSPKLLIYWTSTRKSGVPDRFSGSGSGTDFTLTISSLQAEDVAVYYCKQSFILRTFGQGTKVEIK
In turn, B5 returned a Kd in [8] of 0.5 nM.

B6: anti-CD3 clone 40G5c (antibody, V domains shown)
VH: EVQLVQSGAEVKKPGASVKVSCKASGYTFTNYYIHWVRQAPGQGLEWIGWIYPGDGNTKYNEKFKGRATLTADTSTSTAYLELSSLRSEDTAVYYCARDSYSNYYFDYWGQGTLVTVSS
VL: DIVMTQSPDSLAVSLGERATINCKSSQSLLNSRTRKNYLAWYQQKPGQPPKLLIYWASTRESGVPDRFSGSGSGTDFTLTISSLQAEDVAVYYCTQSFILRTFGQGTKVEIK
notes: also called hu40G5c
As a reminder, the koff is the rate constant with which the complex falls apart. Read a high koff as a short-lived complex. In general, kon refers to the second-order rate constant of association. Low values mean slow association, high ones fast association. On to B6, for which the Kd in [9] came to 15 nM; in the assay with cyCD3εγ it was 14 nM; in assay [10], 12 nM; in [11], 51 nM. Also, the off-rate (koff) in assay [9] was 0.0176 s⁻¹. In [9], this molecule came in with a kon of 1.2e+06 M⁻¹ s⁻¹. The binding result in the assay with G3A, with N4A, with E5A and in the assay with E6A was “binds” throughout.

These data come from US20200299408A1 (Genentech, published 2020).
